target: acetylcholine receptor (Homo sapiens, UniProt P02708); experiment: SPR binding affinity (RU) of optimized 5mer/6mer/7mer peptides, Examples 6-7; conditions: 6mer-1 Top sequence; SPR; peptides tested at 10 μM
Method in brief: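 Synthetic 5mer and 6mer peptides, built from frequent or infrequent amino-acid combinations, were tested at 10 μM for binding to the human acetylcholine receptor by surface plasmon resonance. Binding is reported in response units (RU).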

Sequence of acetylcholine receptor (P02708 21-457): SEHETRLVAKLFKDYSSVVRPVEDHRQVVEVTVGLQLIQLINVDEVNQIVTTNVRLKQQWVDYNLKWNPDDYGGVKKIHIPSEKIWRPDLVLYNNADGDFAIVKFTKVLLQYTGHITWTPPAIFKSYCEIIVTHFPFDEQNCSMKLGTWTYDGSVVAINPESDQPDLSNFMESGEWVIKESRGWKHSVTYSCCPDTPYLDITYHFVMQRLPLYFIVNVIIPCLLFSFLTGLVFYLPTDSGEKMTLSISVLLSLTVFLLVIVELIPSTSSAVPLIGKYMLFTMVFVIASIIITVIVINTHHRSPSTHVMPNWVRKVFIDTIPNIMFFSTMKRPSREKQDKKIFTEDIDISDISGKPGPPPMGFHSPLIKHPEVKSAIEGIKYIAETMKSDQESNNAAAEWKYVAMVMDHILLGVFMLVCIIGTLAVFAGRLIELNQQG

Substance	Binding affinity
6mer-1-344 (KKSQCR)	125 Ru
6mer-1-304 (RKLYSR)	121 Ru
6mer-1-328 (KRWLQK)	151 Ru
6mer-1-208 (KRSIQR)	122 Ru

same assay, conditions: 6mer-2 Top sequence; SPR; peptides tested at 10 μM

Substance	Binding affinity
6mer-2-58 (KRLQRK)	122 Ru
6mer-2-48 (RRFRKK)	153 Ru
6mer-2-44 (KSVRRK)	145 Ru
6mer-2-144 (KSIRRK)	133 Ru
6mer-2-177 (RSVTKK)	136 Ru
6mer-2-202 (RLIYKK)	122 Ru
6mer-2-187 (KRRRRK)	145 Ru
6mer-2-121 (KRVYRK)	137 Ru

same assay, conditions: SPR, Resonance Units; 5mer Bottom sequence (bottom combinations); peptides tested at 10 μM

Substance	Binding affinity
5mer-662 (KIEEK)	28 Ru
5mer-1070 (RETGK)	26 Ru
5mer-935 (RETFK)	32 Ru
5mer-1022 (KIADK)	29 Ru
5mer-615 (KCCNR)	20 Ru
5mer-723 (RASPR)	22 Ru
5mer-675 (RKPGR)	31 Ru
5mer-1084 (RTHDR)	21 Ru
5mer-627 (KMSPK)	30 Ru

same assay, conditions: SPR, Resonance Units; peptides tested at 10 μM; 6mer-1 Bottom sequence

Substance	Binding affinity
6mer-1-1017 (KRANMK)	37 Ru
6mer-1-1002 (KRIHMK)	29 Ru
6mer-1-1094 (RRMAIK)	42 Ru
6mer-1-1005 (RKPPDR)	26 Ru
6mer-1-1104 (KRNSAR)	28 Ru

same assay, conditions: SPR, Resonance Units; peptides tested at 10 μM; 6mer-1 Bottom sequence (Table 11)

Substance	Binding affinity
6mer-1-646 (RRCTGK)	33 Ru
6mer-1-737 (RRKNAR)	27 Ru
6mer-1-667 (KRDSPK)	32 Ru
6mer-1-763 (RRDCAK)	12 Ru
6mer-1-617 (KRHNVR)	31 Ru
6mer-1-747 (KKTMDR)	24 Ru
6mer-1-776 (KKTSIK)	13 Ru

same assay, conditions: SPR, Resonance Units; peptides tested at 10 μM; 6mer-2 Bottom sequence

Substance	Binding affinity
6mer-2-958 (KFKARK)	28 Ru
6mer-2-986 (KNWARR)	27 Ru
6mer-2-601 (KNSHKK)	25 Ru
6mer-2-923 (RCCAKK)	33 Ru
6mer-2-637 (RPPVRK)	32 Ru
6mer-2-866 (RDNPKK)	24 Ru
6mer-2-984 (KDMWKK)	43 Ru
6mer-2-954 (KCTIRK)	32 Ru
6mer-2-939 (KKCARR)	22 Ru

same assay, conditions: SPR, Resonance Units; peptides tested at 10 μM; 6mer-2 Top sequence

Substance	Binding affinity
6mer-2-501 (KSYSKK)	144 Ru
6mer-2-447 (RVYTKK)	139 Ru
6mer-2-578 (RSVLRK)	135 Ru
6mer-2-577 (KRVQRR)	139 Ru
6mer-2-460 (RSQCRK)	139 Ru
6mer-2-513 (RRLTRK)	121 Ru
6mer-2-478 (KWYTRK)	145 Ru
6mer-2-586 (RWLSRK)	121 Ru
6mer-2-552 (RGLLRR)	148 Ru
6mer-2-596 (KGIQKK)	153 Ru

same assay, conditions: SPR, Resonance Units; peptides tested at 10 μM; 6mer-2 Top sequence (Table 12)

Substance	Binding affinity
6mer-2-393 (RGLQRK)	145 Ru
6mer-2-280 (KSIYRR)	153 Ru
6mer-2-362 (RGRQKR)	154 Ru
6mer-2-207 (KWVSKR)	153 Ru
6mer-2-221 (KQVRKK)	153 Ru
6mer-2-382 (KSVSRR)	148 Ru
6mer-2-347 (RRYSKK)	148 Ru
6mer-2-322 (RRYSRR)	148 Ru

same assay, conditions: SPR, peptides at 10 μM; 6mer-2 Bottom sequence

Substance	Binding affinity
6mer-2-1138 (KAHFKK)	42 Ru
6mer-2-1179 (KACVKK)	34 Ru
6mer-2-1047 (RHDDKR)	28 Ru
6mer-2-1125 (RDAFKK)	30 Ru
6mer-2-1121 (KPSKRR)	21 Ru
6mer-2-1145 (RIKNRR)	23 Ru
6mer-2-1042 (KKMFRK)	36 Ru
6mer-2-1068 (RIHVKK)	26 Ru
6mer-2-1028 (KPEHRR)	41 Ru
6mer-2-1171 (KMPARR)	40 Ru

same assay, conditions: SPR, peptides tested at 10 μM; 5mer Top sequence

Substance	Binding affinity
5mer-211 (RLYYR)	73 Ru
5mer-145 (RSFSK)	62 Ru
5mer-466 (RRVRK)	53 Ru
5mer-24 (KSQCR)	67 Ru
5mer-502 (RRISR)	84 Ru
5mer-170 (RLICK)	62 Ru
5mer-433 (KWRCR)	73 Ru
5mer-88 (RRVQK)	73 Ru
5mer-422 (KWICK)	87 Ru
5mer-441 (KLIRK)	53 Ru
5mer-438 (RVRSR)	76 Ru

same assay, conditions: SPR, peptides tested at 10 μM; 5mer Top sequence (top combinations)

Substance	Binding affinity
5mer-538 (KQQQR)	72 Ru
5mer-557 (KQRRK)	87 Ru

same assay, conditions: SPR, peptides tested at 10 μM; 6mer-1 Bottom sequence (Table 11)

Substance	Binding affinity
6mer-1-859 (RKCMVK)	27 Ru
6mer-1-858 (KKKHKR)	27 Ru
6mer-1-833 (RRYKNR)	19 Ru
6mer-1-891 (RKMAFR)	13 Ru
6mer-1-993 (KRAHDK)	26 Ru

same assay, conditions: SPR, peptides tested at 10 μM; 6mer-1 Top sequence

Substance	Binding affinity
6mer-1-479 (RRSLTR)	135 Ru
6mer-1-531 (RKGQTK)	135 Ru
6mer-1-543 (RRSVCK)	145 Ru
6mer-1-494 (KKLFSR)	128 Ru
6mer-1-589 (KKLQQK)	139 Ru
6mer-1-512 (RKWICK)	154 Ru
6mer-1-583 (KKVLYK)	139 Ru
6mer-1-520 (KRQIYK)	127 Ru
6mer-1-452 (KRLYTR)	141 Ru
6mer-1-403 (KRSQTK)	153 Ru
6mer-1-586 (KRVICK)	136 Ru

same assay, conditions: SPR, peptides tested at 10 μM; 6mer-1 Top sequence (top combinations)

Substance	Binding affinity
6mer-1-157 (KKSLLR)	123 Ru
6mer-1-114 (RRQITK)	153 Ru
6mer-1-112 (KKWVCR)	148 Ru
6mer-1-130 (RKQVLR)	142 Ru
6mer-1-67 (RRSYTR)	135 Ru
6mer-1-167 (RRRYQR)	122 Ru
6mer-1-86 (KKWRQK)	142 Ru
6mer-1-49 (RRWQTR)	149 Ru
6mer-1-76 (RRLQLK)	126 Ru
6mer-1-29 (KRLISR)	124 Ru
6mer-1-126 (KKWIQR)	148 Ru
6mer-1-64 (RKQFTK)	154 Ru
6mer-1-160 (RRVIQR)	149 Ru

same assay, conditions: SPR; XRRGVRR-7mer and RRGVRRX-7mer

Substance	Binding affinity, values relative to the RRGVRR sequence
3663 (RRGVRRV) [compound 3663]	149
3645 (PRRGVRR) [compound 3645]	138

same assay, conditions: SPR; XRRQRR-6mer and RRQRRX-6mer

Substance	Binding affinity, relative value to the RRQRR sequence
3606 (LRRQRR) [compound 3606]	144

same assay, conditions: SPR; peptides tested at 10 μM; 5mer Bottom sequence

Substance	Binding affinity
5mer-1161 (KCHDR)	21 Ru
5mer-834 (RMNIK)	15 Ru
5mer-1126 (KPTHK)	26 Ru
